Data: publication PMC11390479, “Visualizing chaperonin function in situ by cryo-electron tomography” (Nature, 2024)

Legend:
GroEL [1] = biological target: T1, GroEL (E. coli, UniProt P0A6F5 1-548); assay: cryo-electron tomography with subtomogram averaging; in vitro reconstituted, isolated GroEL–GroES–MetK complexes with ADP–BeFx, imaged with the parameters of the in situ tomography; details: both partners purified
T1 construct: GroEL, E. coli chaperonin, 57 kDa subunit; two heptameric rings; One molecule for endogenous, pBAD33-expressed and purified GroEL (same untagged protein, same host); also called GroEL 14-mer; GroEL14; source: E. coli BL21(DE3) Gold: endogenous or overexpressed from pBAD33 (araBAD promoter), in cells or in lysate; copies: 14

GroEL [2] = biological target: T1, GroEL; assay: co-IP; GroEL antibody on protein A Sepharose; lysate of MetK-overexpressing cells with apyrase (25 U/ml) to arrest the GroEL cycle; HMK buffer, 1 h; immunoblot for GroEL and MetK and LC-MS/MS (iBAQ); details: partners not purified
GroEL [3] = biological target: T1, GroEL; assay: SEC; Superdex 200 3.2/300 GL; complex formed from 4 uM MetK heat denatured (60 °C, 15 min) with 1 uM GroEL 14-mer in buffer A (20 mM MOPS-NaOH pH 7.4, 200 mM KCl, 10 mM MgCl2, 5 mM DTT) with 30 mM NaF and 5 mM BeSO4, then 2 uM GroES 7-mer and 1 mM ATP; fractions by SDS-PAGE and mass spectrometry (iBAQ); details: both partners purified
[4] = biological target: the molecule itself; assay: cryo-EM structure; single-particle analysis of in vitro reconstituted GroEL–GroES–MetK complexes with ADP–BeFx (non-cycling); control of GroEL and GroES treated identically without MetK

T1 sequence (P0A6F5 whole entry): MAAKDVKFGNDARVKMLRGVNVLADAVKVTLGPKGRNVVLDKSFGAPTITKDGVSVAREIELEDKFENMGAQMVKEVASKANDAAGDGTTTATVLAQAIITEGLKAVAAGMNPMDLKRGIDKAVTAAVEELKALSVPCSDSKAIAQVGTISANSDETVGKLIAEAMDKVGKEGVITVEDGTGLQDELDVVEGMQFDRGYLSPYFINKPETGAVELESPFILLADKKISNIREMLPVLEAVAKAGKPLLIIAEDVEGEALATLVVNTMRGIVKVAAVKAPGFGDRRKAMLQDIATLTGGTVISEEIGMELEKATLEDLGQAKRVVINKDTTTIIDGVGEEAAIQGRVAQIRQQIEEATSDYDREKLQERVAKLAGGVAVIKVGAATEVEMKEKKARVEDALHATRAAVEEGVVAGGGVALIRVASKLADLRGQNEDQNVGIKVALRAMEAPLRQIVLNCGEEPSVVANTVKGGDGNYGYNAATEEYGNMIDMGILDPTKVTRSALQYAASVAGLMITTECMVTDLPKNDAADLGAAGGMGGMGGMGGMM

Row | percent of chambers with strong density of folded MetK (class I) (GroEL [1]) [%] | stoichiometry N (GroEL [2]) | stoichiometry N (GroEL [3]) [MetK per GroEL 14-mer] | Binder | binding result [4]
1 | ~40 | ~1.3 MetK molecules per GroEL complex | ~1.2 | S-adenosylmethionine synthase (MetK) (enzyme, E. coli, S-adenosylmethionine synthase MetK, obligate GroEL substrate of E. coli; 379 C-alpha atoms compared with PDB 7LOO; core loop residues 97-111; In vitro the protein was heat denatured (60 °C, 15 min) in the presence of GroEL before encapsulation; it stands in the chaperonin as a single subunit; also called fMetK (folded MetK); source: E. coli BL21(DE3): overexpressed from pET22b (T7 promoter, …)) MAKHLFTSESVSEGHPDKIADQISDAVLDAILEQDPKARVACETYVKTGMVLVGGEITTSAWVDIEEITRNTVREIGYVHSDMGFDANSCAVLSAIGKQSPDINQGVDRADPLEQGAGDQGLMFGYATNETDVLMPAPITYAHRLVQRQAEVRKNGTLPWLRPDAKSQVTFQYDDGKIVGIDAVVLSTQHSEEIDQKSLQEAVMEEIIKPILPAEWLTSATKFFINPTGRFVIGGPMGDCGLTGRKIIVDTYGGMARHGGGAFSGKDPSKVDRSAAYAARYVAKNIVAAGLADRCEIQVSYAIGVAEPTSIMVETFGTEKVPSEQLTLLVREFFDLRPYGLIQMLDLLHPIYKETAAYGHFGREHFPWEKTDKAQLLRDAAGLK | –
2 | – | – | – | GroES (complex, E. coli, UniProt P0A6F9 1-97, looked up, GroES, E. coli co-chaperonin, heptamer of 10 kDa subunits; also called GroES 7-mer; lid-shaped cofactor GroES; source: E. coli BL21(DE3) Gold: endogenous or overexpressed from pBAD33 (with groEL, araBAD promoter), in cells) MNIRPLHDRVIVKRKEVETKSAGGIVLTGSAAAKSTRGEVLAVGNGRILENGEVKPLDVKVGDIVIFNDGYGVKSEKIDNEEVLIMSESDILAIVEA | binds
